Substitutions are numbered along the chain they refer to. Where no end group is shown, it is not given here.
Key:
[1] = test system: Escherichia coli strain DB3.1; experiment: microdilution assay of hβD2 coated biopolymers (percentage killing); format: cell-based; conditions: blocking substance alone, without hβD2
Description: Microdilution assay. In the microdilution assay the microorganisms were exposed to a potential bio-active substance in liquid surrounding, thus free to move. This potential bio-active substance was either homogenously dispersed in the liquid surrounding by active mixing at the beginning of the tests or could spread out of the sample during incubation time. The bioactivity was measured in percentage killing, wherein the number of colony forming units (CFU) in a control without test substance was set to 0% killing and a reduction in the cell number to zero was set to 100% killing.
Fresh cells were harvested by centrifugation at 1600 rpm for 10 min, the supernatant was removed and the cell pellet was resuspended in 5 ml 10 mM sodium phosphate buffer. This procedure was repeated twice. The optical density was adjusted to OD600 of 0.500 with 10 mM sodium phosphate buffer. 100 μl of the bacterial suspension was pipetted in one well of a microtiter plate without optimized surface. 10 μl test substance or test sample was added. In case of a test substance, the mixture was homogenized by absorbing the mixture several times with a pipette. The microtiter plate is then closed with parafilm and incubated at 37° C. for 2 h. After incubation the substances in the wells were mixed by a pipette. […] For evaluation, the grown colonies were counted.
The microdilution assay facilitates the examination of the hβD2 release kinetics of the biopolymers and thus allowed conclusions on what amounts of hβD2 in which time could be released. For comparing on evaluation of the assay the effect of directly applied hβD2 amounts with the effect of hβD2 amounts applied on biopolymers, the achieved percentage killing of bacteria was compared to the killing rate of the hβD2 standard series in the microdilution assays.
The collagen scaffolds and polylactide matrices were examined in the microdilution assay regarding their hβD2 release kinetics. Since the incubation time of the samples in the bacterial suspension is limited, the samples were stored at −25° C. after the test and until completion of a further assay. The thawed samples were then used in a new assay and were incubated again.

gram-positive bacteria = conditions: covalently attached onto titanium surfaces, in vitro; cited from earlier work
[2] = target: collagen scaffold (bovine collagen type I) (bovine, UniProt P02453 162-1217; P02465 80-1117, limits assumed); experiment: cell-based or functional assay
[3] = test system: Escherichia coli strain DB3.1; experiment: micro-dilution assay of coated titanium pins and peptide controls (bacterial killing, CFU); format: cell-based; conditions: for antibacterial activity, killing: 10 μg coated on SAM 1, SAM 2, SAM 3 titanium pins, 2 h
Description: In a first experiment 10 μg of hβD2 was coated to three different SAM Hexadecyltrimethoxysilane (SAM 1), Dimethoxymethyloctylsilane (SAM 2), and oxidized Allyltrimethoxysilane (SAM 3) of the modified titanium pins. The anti-bacterial activity of the hβD2-coated pins was tested by a micro-dilution assay. Therefore, Escherichia coli strain DB3.1 (Invitrogen, Cat. No. 11782-018) was used. E. coli was streaked from a glycerol stock onto a Brain Heart Infusion (BHI) agar plate (3.7% (w/v) BHI Bouillon, 1.5% (w/v) Agar), grown overnight at 37° C. and subsequently used to inoculate 40 ml of 3.7% (w/v) BHI Bouillon without any antibiotics in 100 ml flasks. Fresh cells were harvested by centrifugation at 16000 rpm for 10 min and washed twice with 10 mM sodium phosphate buffer, pH 7.2. The optical density was adjusted to 10^4 cells/ml. For anti-bacterial testing, a single pin coated with hβD2 was incubated in one well of a microtiter plate containing 100 μl of the bacterial suspension.
Functionalized titanium pins without hβD2 served as negative controls (SAM1-n, SAM2-n, SAM3-n, SAM4::Col-NHS-n, SAM4::Col-Glu-n). In addition, 5 independent control reactions consisting of hβD2 in a final amount of 0 (NC), 0.02 (PC1), 0.2 (PC2), 2 (PC3) and 10 (PC4) μg were examined in parallel. To determine the specificity of the anti-bacterial activity of hβD2, 10 μl (10 μg/ml in PBS) of polyclonal monospecific anti-hβD2 antibodies were co-incubated with 10 μg of hβD2 and bacterial cells (Table I, PC4/ab).
The microtiter plates were incubated for 2 h at 37° C. The kinetic studies were performed by replacing the bacterial suspension, after 2 h of cultivation with a freshly pre-cultured E. coli solution, which contained the same bacterial concentration, and cultivating for another 2 h and so on. Colony forming units (CFU) were determined after plating 100 μl of a 1:100 dilution of the bacterial suspension on petri dishes with BHI medium and incubating them overnight at 37° C. For every group of the functionalized titanium pins and the controls, 5 independent anti-bacterial assays were performed. A control (NC) of bacterial growth was examined for every independent assay. The number of CFU on the control (consisting of a single petri dish) was set to 0% bactericidal activity. The reduction in the CFU resulting from the anti-bacterial activity of hβD2 was related to the absolute CFU of the control within every independent assay. This value, given as a percentage of the bacterial “killing” activity, was used to describe the antibacterial activity. This kind of normalisation of the antibacterial data was performed for every experimental group.
To examine the release behavior of hβD2 that is adsorbed by different SAM modified titanium pins a time kinetic experiment was performed. The experiment was performed analogous to Example 2. For this experiment 80 μg of hβD2 was adsorbed to three different SAMs Hexadecyltrimethoxysilane (SAM1), Dimethoxymethyloctylsilane (SAM2), and oxidized Allyltrimethoxysilane (SAM3) of the modified titanium pins.
Since it is known that collagen has a positive impact on wound healing, functionalised titanium pins with collagen were investigated. Two different cross-linking strategies for collagen on SAM3 and SAM4 were applied as described in Example 1: (i) a covalently binding strategy with the NHS/EDC cross-linking system, and (ii) the use of glutaraldehyde. Successful binding of collagen was monitored by collagen-specific DirectRed staining (as described in Example 1). […] Additionally 80 μg hβD2 was adsorbed to collagen functionalized SAM3 and SAM4 modified titanium pins, respectively. For monitoring the antibacterial activity of the bio-coated pins the experiment was performed analogous to Example 3. […]

[4] = 80 μg adsorbed on SAM3 titanium pins, 6 h
[5] = 80 μg on collagen SAM4 pins, NHS/EDC-system, 4 h
[6] = 80 μg on collagen SAM4 pins, NHS/EDC-system, 6 h
[7] = 80 μg on collagen SAM4 pins, glutaraldehyde, 4 h
[8] = 80 μg on collagen SAM4 pins, glutaraldehyde, 6 h

Sequence of collagen scaffold (bovine collagen type I) (P02453 162-1217 limits assumed, chain 1 of 2): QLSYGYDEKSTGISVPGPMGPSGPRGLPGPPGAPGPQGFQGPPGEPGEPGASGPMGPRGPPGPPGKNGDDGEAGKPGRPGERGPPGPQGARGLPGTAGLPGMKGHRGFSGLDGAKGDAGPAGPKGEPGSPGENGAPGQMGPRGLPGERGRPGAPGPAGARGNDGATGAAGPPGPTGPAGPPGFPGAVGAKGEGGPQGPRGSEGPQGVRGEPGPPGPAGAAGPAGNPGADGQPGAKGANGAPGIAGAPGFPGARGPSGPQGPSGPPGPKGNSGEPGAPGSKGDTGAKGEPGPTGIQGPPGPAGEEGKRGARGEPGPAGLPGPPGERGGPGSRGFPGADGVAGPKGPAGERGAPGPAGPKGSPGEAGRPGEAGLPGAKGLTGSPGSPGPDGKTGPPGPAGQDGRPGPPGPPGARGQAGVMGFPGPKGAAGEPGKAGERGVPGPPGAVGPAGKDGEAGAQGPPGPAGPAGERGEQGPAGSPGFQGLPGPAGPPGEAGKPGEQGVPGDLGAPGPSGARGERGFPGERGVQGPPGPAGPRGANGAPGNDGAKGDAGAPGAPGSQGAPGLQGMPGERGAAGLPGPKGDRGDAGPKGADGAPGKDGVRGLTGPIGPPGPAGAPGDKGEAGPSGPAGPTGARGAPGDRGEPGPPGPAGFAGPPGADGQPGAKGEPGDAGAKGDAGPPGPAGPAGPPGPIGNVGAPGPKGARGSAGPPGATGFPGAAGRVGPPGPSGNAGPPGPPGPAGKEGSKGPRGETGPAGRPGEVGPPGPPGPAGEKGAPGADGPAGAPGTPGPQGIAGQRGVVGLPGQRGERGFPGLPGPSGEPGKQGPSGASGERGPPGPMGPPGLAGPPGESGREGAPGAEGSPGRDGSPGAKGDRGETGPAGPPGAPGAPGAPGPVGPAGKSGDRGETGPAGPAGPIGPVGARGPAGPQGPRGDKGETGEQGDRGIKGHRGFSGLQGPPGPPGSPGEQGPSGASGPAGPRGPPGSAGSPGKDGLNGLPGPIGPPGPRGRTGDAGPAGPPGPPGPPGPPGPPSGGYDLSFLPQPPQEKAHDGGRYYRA
Sequence of collagen scaffold (bovine collagen type I) (P02465 80-1117 limits assumed, chain 2 of 2): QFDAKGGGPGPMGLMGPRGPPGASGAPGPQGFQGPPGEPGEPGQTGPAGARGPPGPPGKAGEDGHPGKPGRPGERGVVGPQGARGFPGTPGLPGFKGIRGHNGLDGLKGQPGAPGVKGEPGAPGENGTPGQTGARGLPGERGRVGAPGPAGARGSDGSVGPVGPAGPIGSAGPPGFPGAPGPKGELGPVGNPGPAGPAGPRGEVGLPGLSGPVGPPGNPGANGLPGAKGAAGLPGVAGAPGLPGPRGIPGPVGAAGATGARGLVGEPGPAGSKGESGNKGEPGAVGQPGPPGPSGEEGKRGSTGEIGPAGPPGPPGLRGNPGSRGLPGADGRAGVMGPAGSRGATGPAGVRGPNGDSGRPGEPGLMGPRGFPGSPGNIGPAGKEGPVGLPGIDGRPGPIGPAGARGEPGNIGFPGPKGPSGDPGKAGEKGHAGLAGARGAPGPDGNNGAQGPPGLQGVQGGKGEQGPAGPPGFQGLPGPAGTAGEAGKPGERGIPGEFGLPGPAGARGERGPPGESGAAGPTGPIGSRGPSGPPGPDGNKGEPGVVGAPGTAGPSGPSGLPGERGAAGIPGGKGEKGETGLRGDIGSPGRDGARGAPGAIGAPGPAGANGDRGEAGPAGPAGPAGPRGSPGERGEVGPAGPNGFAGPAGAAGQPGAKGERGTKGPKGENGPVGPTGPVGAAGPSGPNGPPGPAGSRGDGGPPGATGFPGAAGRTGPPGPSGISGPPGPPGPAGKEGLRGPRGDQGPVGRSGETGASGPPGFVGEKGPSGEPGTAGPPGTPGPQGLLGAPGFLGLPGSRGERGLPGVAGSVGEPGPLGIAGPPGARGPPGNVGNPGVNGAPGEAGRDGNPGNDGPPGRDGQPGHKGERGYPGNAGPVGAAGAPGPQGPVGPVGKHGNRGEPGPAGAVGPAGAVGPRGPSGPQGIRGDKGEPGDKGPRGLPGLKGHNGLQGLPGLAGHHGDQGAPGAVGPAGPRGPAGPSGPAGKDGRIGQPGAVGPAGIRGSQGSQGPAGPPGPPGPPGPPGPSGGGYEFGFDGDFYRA

N[C@@H](CCC(=O)O)C(=O)O [L-glutamic acid, reference compound]
self-activity (killing / reduction of the number of bacteria) [1]: 4%

NCCCC[C@H](N)C(=O)O [L-lysine, reference compound]
self-activity (killing / reduction of the number of bacteria) [1]: 4%

O=C([O-])CC(O)(CC(=O)[O-])C(=O)[O-].[Na+].[Na+].[Na+] [Sodium citrate, sodium citrate, reference compound]
self-activity (killing / reduction of the number of bacteria) [1]: 100%

NCCCCNCCCN [spermidine, reference compound]
self-activity (killing / reduction of the number of bacteria) [1]: 35%

CN[C@H](CC(C)C)C(=O)N[C@H]1C(=O)N[C@@H](CC(N)=O)C(=O)N[C@H]2C(=O)N[C@H]3C(=O)N[C@H](C(=O)N[C@H](C(=O)O)c4cc(O)cc(O)c4-c4cc3ccc4O)[C@H](O)c3ccc(c(Cl)c3)Oc3cc2cc(c3O[C@@H]2O[C@H](CO)[C@@H](O)[C@H](O)[C@H]2O[C@H]2C[C@](C)(N)[C@H](O)[C@H](C)O2)Oc2ccc(cc2Cl)[C@H]1O [vancomycine]
reduced colony-forming of gram-positive bacteria (gram-positive bacteria): up to 88%

chondroitin sulphate [reference compound]
self-activity (killing / reduction of the number of bacteria) [1]: 23%

poly-L-glutamic acid [reference compound]
self-activity (killing / reduction of the number of bacteria) [1]: no self-activity

poly-L-lysine [reference compound]
self-activity (killing / reduction of the number of bacteria) [1]: 100%

GIGDPVTCLKSGAICHPVFCPRRYKQIGTCGLPGTKCCKKP (ends and bridges not checked; cysteine pairing not given here) [human β-defensin-2]
hβD2 released by the scaffold (agar diffusion assay, zone of inhibition against E. coli, 10 µg hβD2 applied) [2]: 40% | hβD2 retarded by the scaffold (agar diffusion assay, zone of inhibition against E. coli, 10 µg hβD2 applied) [2]: 60%

B1: Ribonuclease 7 (protein)
chain: KPKGMTSSQWFKIQHMQPSPQACNSAMKNINKHTKRCKDLNTFLHEPFSSVAATCQTPKIACKNGDKNCHQSHGPVSLTMCKLTSGKYPNCRYKEKRQNKSYVVACKPPQKKDSQQFHLVPVHLDRVL
modifications: Homo sapien
antibacterial activity, killing [3]: about 90% | killing rate [3, 4]: 21% | killing rate [3, 5]: 49% | killing rate [3, 6]: about 22% | killing rate [3, 7]: 77% | killing rate [3, 8]: about 8%

B2: mutRNAse7: Ribonuclease 7 derivative, SEQ ID NO: 10 (protein)
chain: B1 chain with K38R, H123D
modifications: Synthetic primer
antibacterial activity, killing [3]: about 90% | killing rate ([3]; 80 μg adsorbed on SAM1 titanium pins, 6 h): ~41% | killing rate [3, 4]: 17% | killing rate [3, 5]: 53% | killing rate [3, 6]: ~17% | killing rate [3, 7]: 75% | killing rate [3, 8]: ~15%

Source: patent publication US20110311601A1, “ANTIMICROBIAL MEDICAL DEVICES” (priority 2010, published 2011)
